Experimental data reported in US20230212613.

Experiments:
[1] = test system: TRAC TALEN left monomer (artificial); experiment: cell_activity; conditions: as TALEN pair with right monomer; primary human T cells, plateau by 72 h
[2] = test system: TRAC TALEN right monomer (artificial); experiment: cell_activity; conditions: as TALEN pair with left monomer; primary human T cells, plateau by 72 h

Sequence | activity [1] [% indels] | activity [2] [% indels]
TTCCTCCTACTCACCAT (double strand) [TRAC TALEN left half-site] | 90 | –
GGTACAGGTAAGAGCAA (double strand) [TRAC TALEN right half-site] | – | 90
